Assay [1] deals with T1, Aβ 1-40 (beta-amyloid protein 1-40).
T1 construct: Bought from Bachem; Residues 1-40 are counted on Aβ itself; also called Alzheimer's Aβ
Kind of assay: solid phase binding immunoassay; ~55 kDa laminin fragment immobilized on microtiter plates, increasing concentrations of Aβ (1-40).

The target in assay [2] is Aβ 1-42 (beta-amyloid protein 1-42), pre-formed fibrils. Kind of assay: cell-based or functional assay.
Assay [3] concerns the target Aβ (beta-amyloid protein, length not stated at the place). Put plainly: cell-based or functional assay.

Ends that are not written are not given here.

B1: ~55 kDa laminin fragment obtained by elastase digestion of EHS mouse laminin (other, UniProt P19137 2690-3083, looked up)
chain: HREHGELPPEPPTLPQPELCAVDTAPGYVAGAHQFGLSQNSHLVLPLNQSDVRKRLQVQLSIRTFASSGLIYYVAHQNQMDYATLQLQEGRLHFMFDLGKGRTKVSHPALLSDGKWHTVKTEYIKRKAFMTVDGQESPSVTVVGNATTLDVERKLYLGGLPSHYRARNIGTITHSIPACIGEIMVNGQQLDKDRPLSASAVDRCYVVAQEGTFFEGSGYAALVKEGYKVRLDLNITLEFRTTSKNGVLLGISSAKVDAIGLEIVDGKVLFHVNNGAGRITATYQPRAARALCDGKWHTLQAHKSKHRIVLTVDGNSVRAESPHTHSTSADTNDPIYVGGYPAHIKQNCLSSRASFRGCVRNLRLSRGSQVQSLDLSRAFDLQGVFPHSCPGPEP
notes: domain: C-terminal globular domains of the laminin A1 chain; also called ~55 kilodalton laminin fragment; ~55 kDa fragment of laminin
The molecule B1 returned a Kd in assay [1] of 2 nM.

On to RKRLQVQLSIRT-NH2 [AG73 peptide (laminin alpha-1 chain globular domain-derived peptide)], for which the “disruption of pre-formed Aβ 1-42 fibrils (Thioflavin T fluorometry), Aβ:peptide molar ratio 1:10” value in assay [2] was 81%. Moreover, the “inhibition of Aβ fibril formation, Aβ:peptide molar ratio 1:1” value in assay [3] amounted to 50%.

The values are drawn from patent US20050153896A1 (published 2005).
